Reference: article PMC8054679

How the values were obtained:
Hsp70 (Homo sapiens) = details: cited from earlier work
SmBiT-CHIP-FLAG = test: split reporter
Chain of SmBiT-CHIP-FLAG (Q9UNE7 whole entry): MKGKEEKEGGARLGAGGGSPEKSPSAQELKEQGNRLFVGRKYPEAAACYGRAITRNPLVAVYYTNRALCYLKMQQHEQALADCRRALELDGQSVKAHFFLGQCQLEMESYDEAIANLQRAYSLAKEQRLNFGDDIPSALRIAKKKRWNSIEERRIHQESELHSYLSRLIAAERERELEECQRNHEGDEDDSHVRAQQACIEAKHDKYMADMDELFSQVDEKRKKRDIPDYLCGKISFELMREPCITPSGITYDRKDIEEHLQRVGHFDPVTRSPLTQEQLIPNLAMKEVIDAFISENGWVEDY

Chain of CHIP TPR (Q9UNE7 21-154): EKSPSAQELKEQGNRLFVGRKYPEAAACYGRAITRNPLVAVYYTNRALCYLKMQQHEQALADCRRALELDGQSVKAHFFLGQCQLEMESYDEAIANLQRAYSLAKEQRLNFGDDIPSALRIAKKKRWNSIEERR

Row | IC50 (SmBiT-CHIP-FLAG) [µM] | percent reduction of luminescence at 10 μM (SmBiT-CHIP-FLAG) [%] | Substance | Kd (Hsp70 (Homo sapiens)) [µM]
1 |  |  | CHIP TPR (from UniProt Q9UNE7) | 0.6
2 | 2.6 | 40 | R9-LWWPD (peptide; other documents disagree on this pair) | 
